Test results reported in US20150111836A1, “CELLULAR APOBEC3 PROTEINS AND MODULATORS THEREOF FOR REGULATING DNA REPAIR PROCESSES AND TREATING PROLIFERATIVE DISEASES” (priority 2012, published 2015).

How the values were obtained:
[1] = target: T1, purified recombinant A3G-His6 (human APOBEC3G with C-terminal Myc-His6 tag, expressed in 293T cells) (human), Q9HC16
[2] = target: T1, purified recombinant A3G-His6 (human …); test: cell-based or functional assay

T1 sequence (Q9HC16 whole entry): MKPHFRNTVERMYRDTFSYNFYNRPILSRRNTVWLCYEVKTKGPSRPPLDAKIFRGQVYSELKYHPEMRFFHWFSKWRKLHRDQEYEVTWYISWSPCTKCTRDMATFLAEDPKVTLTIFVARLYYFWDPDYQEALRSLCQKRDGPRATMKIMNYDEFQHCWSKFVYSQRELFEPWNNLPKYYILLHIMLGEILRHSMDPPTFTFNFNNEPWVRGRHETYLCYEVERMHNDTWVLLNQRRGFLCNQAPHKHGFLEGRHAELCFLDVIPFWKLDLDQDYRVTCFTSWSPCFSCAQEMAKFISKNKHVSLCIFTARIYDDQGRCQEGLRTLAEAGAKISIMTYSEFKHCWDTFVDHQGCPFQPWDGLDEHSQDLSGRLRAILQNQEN

Binder | K'I [1] [nM] | Ki [1] [nM] | IC50 of inhibition of A3G deaminase activity [2] [nM] | inhibition of A3G deaminase activity [2] [µM] | IC50 of inhibition of deaminase activity of purified A3G (experimental repeat) [2] [nM]
QLIHLYYFDCFSESA (modifications not checked) [Vif105-119 peptide] | 92 | 68 | 100 | 1 | 
VKHHMYISGKAKGWF (modifications not checked) [Vif25-39 peptide] | 250 |  | 600 | 1 | 1000
